Results published in the supplement of paper PMC9732359.
± gives the uncertainty stated by the source.

Assay: protein stability index of a GFP-peptide fusion (yeast GPS) (PSI 1-4); higher = more stable; sorted into four equal gates, so the index is relative within each strain
In short: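 Tiled yeast protein peptides of 17 residues were each joined downstream of GFP, on plasmids that also express Cherry. The pooled library was maintained in yeast, and mid-log cultures in leucine-free medium were sorted into four equal gates on the GFP/Cherry ratio. Plasmids from every gate were amplified by PCR and sequenced on Illumina, with barcodes linking reads to strains. The protein stability index of a peptide is its gate-number-weighted read frequency summed over the gates.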

Sequence | protein stability index (doa10∆) | protein stability index (pdr5∆) | protein stability index (san1∆) | protein stability index (ubr1∆)
DKSTKTAEAPTLSFNFS [YOR098C/NUP1] | 3.27 ± 0.076 | 3.29 ± 0.083 | 3.24 ± 0.051 | 3.23 ± 0.084
KERIVRAFLIEEQKIVK [RPL34B] | – | – | – | 2.74 ± 0.12
SNIITKSLVQYIELLPN [DIS3] | 2.64 ± 0.072 | 2.08 ± 0.065 | 2.22 ± 0.072 | 2.38 ± 0.05
NQTRKAHRNGIKKPKTY [RPL29] | 2.65 ± 0.083 | 2.98 ± 0.072 | 2.92 ± 0.058 | 2.99 ± 0.063
APEIPEDLYYLIKKAVS [RPS13] | 2.94 ± 0.081 | 2.92 ± 0.096 | 3.07 ± 0.079 | 2.69 ± 0.13
LITLFNKGELETQPGCN [RPO31] | 2.71 ± 0.1 | 3.26 ± 0.083 | 2.98 ± 0.097 | 2.94 ± 0.11
MSDVEEVVEVQEETVVE [RPS12] | 3.15 ± 0.1 | 3.36 ± 0.11 | 2.89 ± 0.084 | 3.12 ± 0.12
IIEQLSIAAERYDYSDE [YCG1] | 2.51 ± 0.052 | 2.78 ± 0.063 | 2.22 ± 0.06 | 2.59 ± 0.032
NIIASPLSAGFNYGKLP [SIN4] | 2.62 ± 0.079 | 2.72 ± 0.086 | 2.68 ± 0.048 | 2.54 ± 0.076
LKSFTESTAGSASTSAT [ECM29] | 2.82 ± 0.067 | 3.14 ± 0.061 | 3.06 ± 0.053 | 3.15 ± 0.04
PLDTIETELPTLSLPDS [SMC1] | 3 ± 0.12 | 2.92 ± 0.12 | 2.92 ± 0.083 | 3.09 ± 0.089
TINLDRFMKGRRSKQLI [RPC82] | 2.09 ± 0.1 | 2.64 ± 0.078 | 1.79 ± 0.17 | 2.74 ± 0.078
YLRVSFKNTRETAQAIN [RPL17A] | 1.51 ± 0.03 | 1.34 ± 0.042 | 1.5 ± 0.1 | 1.31 ± 0.034
LKKELKLLAKELEEQES [SMC2] | 2.81 ± 0.088 | 3.14 ± 0.063 | 2.9 ± 0.09 | 3.31 ± 0.07
NKTSNNNNVTAVPAATP [SWI1] | 2.84 ± 0.044 | 3.06 ± 0.046 | 2.81 ± 0.032 | 3.07 ± 0.042
SLKGYKIENSVQIGAEI [CSI1] | – | 3.21 ± 0.2 | 3.25 ± 0.13 | 3.17 ± 0.17
AGNKVGQSEASLLNLLN [RPP0] | 3.03 ± 0.12 | 2.25 ± 0.095 | 2.67 ± 0.1 | 2.95 ± 0.12
QDLILDLKKKLNSLKDE [SMC4] | 2.39 ± 0.083 | 2.82 ± 0.2 | 2.01 ± 0.076 | 1.57 ± 0.062
NSTASSSNISPEQVYSL [ARP7] | 2.57 ± 0.05 | 2.78 ± 0.046 | 2.63 ± 0.051 | 2.88 ± 0.039
MAQNKTHIPQTNLKNHP [YLR018C/POM34] | 3.12 ± 0.082 | 2.98 ± 0.057 | 2.75 ± 0.058 | 2.85 ± 0.04
IYDFPGTPEATKGMITN [NUT2] | 2.54 ± 0.11 | 2.54 ± 0.11 | 2.98 ± 0.15 | 3.3 ± 0.086
HRLLQRALFRQLKRWYW [RMP1] | 2.29 ± 0.18 | 1.2 ± 0.12 | 1.22 ± 0.17 | 1.35 ± 0.11
QFLQLDNDGFSFLMRQF [ECM29] | 1.33 ± 0.042 | 1.54 ± 0.061 | 1.45 ± 0.072 | 1.83 ± 0.051
DPNLELDQVGVPKSIAK [RPO21] | 3.48 ± 0.23 | 3.18 ± 0.14 | 2.44 ± 0.25 | 3.11 ± 0.16
SHISASASPHLAPNMQL [SNF2] | 2.92 ± 0.041 | 2.83 ± 0.04 | 2.93 ± 0.033 | 3.1 ± 0.032
IEGMEQRIIKELSIRFP [ARP7] | 3.04 ± 0.096 | 3.21 ± 0.12 | 2.84 ± 0.086 | 2.26 ± 0.099
MENNEPAMAMEDLKNFI [SRB8] | 3.18 ± 0.074 | 3.29 ± 0.081 | 3.24 ± 0.043 | 3.08 ± 0.068

Sequence | protein stability index (doa10∆) | protein stability index (pdr5∆) | protein stability index (san1∆) | protein stability index (ubr1∆)
IVLSDQTQEFFLSSFDD [YJL039C/NUP192] | 2.91 ± 0.12 | 2.89 ± 0.093 | 2.92 ± 0.057 | 3.25 ± 0.13
IDNYITNSVRLFEVNPS [SRP21] | 2.61 ± 0.1 | 2.78 ± 0.088 | 2.54 ± 0.091 | 2.28 ± 0.12
PNVCNMKQYRDFLGVAS [PRP28] | 1.99 ± 0.14 | 2.26 ± 0.091 | 2.37 ± 0.077 | 1.99 ± 0.072
LMEEIESLKKELQIFKT [YIL149C/MLP2] | 2.94 ± 0.094 | 2.96 ± 0.068 | 2.82 ± 0.072 | 3.08 ± 0.055
AINPGRVAASFSQEALQ [FAS1] | 2.05 ± 0.15 | 2.53 ± 0.15 | 2.63 ± 0.13 | 1.98 ± 0.098
FSFGGTQTGQNTGPSTG [YGL172W/NUP49] | 3.59 ± 0.23 | 3.34 ± 0.17 | 3.18 ± 0.1 | 3.1 ± 0.11
LSDLSSPVQDWNLLRSL [YML103C/NUP188] | 3.29 ± 0.14 | 3.07 ± 0.17 | 2.86 ± 0.1 | 2.65 ± 0.14
TKLRAFVYNKVNETEAI [YGR119C/NUP57] | 2.3 ± 0.084 | 2.69 ± 0.064 | 2.68 ± 0.061 | 2.59 ± 0.059
KDQLPDLESMGLTQLYK [MED7] | 2.85 ± 0.07 | 3.08 ± 0.071 | 2.87 ± 0.077 | 3.13 ± 0.069
REDIDDPLAKVNVLLQS [BRR2] | 2.91 ± 0.12 | 3.04 ± 0.088 | 3.19 ± 0.092 | 2.96 ± 0.11
QEKMDPNNSRDDYKDLT [IRR1] | 3.33 ± 0.078 | 3.27 ± 0.083 | 3.23 ± 0.066 | 3.25 ± 0.076
FSRHAQQQTSTFNSKPV [SIR4] | 2.38 ± 0.056 | 2.82 ± 0.058 | 2.07 ± 0.076 | 2.38 ± 0.047
QVGERIKQTFKNDLFVI [RPO21] | 2.38 ± 0.066 | 2.36 ± 0.07 | 2.56 ± 0.06 | 2.49 ± 0.064
LHGLRSFYDAIFFNIPL [YJL039C/NUP192] | 2.61 ± 0.039 | 2.24 ± 0.042 | 2.309 ± 0.022 | 1.9 ± 0.034
LERIVQIMQNPTHYKIP [RPS18A] | 2.61 ± 0.1 | 3.1 ± 0.11 | 2.9 ± 0.065 | 2.74 ± 0.12
QPTNFTTKRLWSEITES [MCD1] | 1.99 ± 0.088 | 2.38 ± 0.066 | 2.04 ± 0.089 | 2.04 ± 0.09
FVQLCEMGYLIQISKLH [RPC82] | 1.74 ± 0.05 | 1.95 ± 0.064 | 1.77 ± 0.1 | 1.96 ± 0.058
MSGILHCEDKDYKTAFS [RPN6] | 2.95 ± 0.07 | 2.89 ± 0.071 | 2.51 ± 0.072 | 3.16 ± 0.049
YQDIEGGFEDVEEYTWS [RPB2] | 3.44 ± 0.14 | 3.29 ± 0.11 | 3.49 ± 0.066 | 3.44 ± 0.099
FLTNYNVRMDTMANILY [RPB2] | 3.58 ± 0.17 | 3.02 ± 0.098 | 3.48 ± 0.1 | 3.48 ± 0.14
LEQREQNENLPSDKSDS [SSN2] | 3.16 ± 0.07 | 3.09 ± 0.071 | 3.04 ± 0.057 | 3.12 ± 0.056
EEELFEVTKEEDIIANY [RRP43] | 3.17 ± 0.088 | 3.08 ± 0.073 | 3.19 ± 0.11 | 3.43 ± 0.077
LVPPPRTIANQDHFHRL [RPR2] | 3.01 ± 0.086 | 3.15 ± 0.069 | 2.88 ± 0.051 | 2.93 ± 0.066
TSKPVFSFGAATPSAKE [YLR335W/NUP2] | 2.95 ± 0.046 | 3.08 ± 0.053 | 3.08 ± 0.043 | 3.06 ± 0.041
SFKLCTLLIAIRGSNRD [YML103C/NUP188] | 1.31 ± 0.048 | 1.78 ± 0.061 | 2.01 ± 0.077 | 2.41 ± 0.046
NINSTDKSIDTSSLQLY [YML103C/NUP188] | 2.98 ± 0.099 | 2.67 ± 0.14 | 3.11 ± 0.049 | 3.25 ± 0.07
FRHFIGIKAKHDKNIQK [ISW2] | 2.68 ± 0.089 | 2.6 ± 0.085 | 2.48 ± 0.06 | 2.51 ± 0.078
